For the experiment, the target named is integrin αIIbβ3 on K562 cells stably expressing recombinant αIIbβ3 (αIIbβ3-K562) (UniProt P08514 32-1039; P05106 27-788). As to the kind of experiment: flow cytometry on cells. A general note: In flow cytometry, cells or beads pass a laser one at a time.

B1: Eptifibatide (peptide)
chain: RGDWPC
modifications: homoarginine (Har) at position 2
The term IC50 denotes the concentration that gives 50% inhibition. With B1, the half-maximal inhibitory concentration (IC50) is 73.2 nM.

These data come from publication doi:10.1101/509299 (bioRxiv, 2019).
